Reference: the supplement of paper PMC10724198
± gives the standard deviation of the averaged measurements.

System: Saccharomyces cerevisiae
Assay: protein stability index of tFT-peptide fusion (C-terminal peptide) (PSI (0-1 scale)); higher = more stable (slower turnover)
Details: temperature: 30 C
Procedure: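 MPS profiling in S. cerevisiae of the yeast C-terminome library: the last 12 aa of each annotated ORF are fused to the C-terminus of a sfGFP-mCherry timer, after a GGGS linker. Cells are FACS-sorted into 8 mCherry/sfGFP bins and deep-sequenced. PSI runs from 0 (unstable) to 1 (stable); wild type and das1Δ backgrounds, two technical replicates each.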

[1] = genetic background: das1 deletion

Sequence | protein stability index [1] | protein stability index (genetic background: wild type)
QQGGAGADQKTE [EMC10 C-terminal 12 aa] | 0.6815 ± 0.0066 | 0.656 ± 0.028
GAGVMAAAAMLL [TIR2 C-terminal 12 aa] | 0.714 ± 0.029 | 0.7089 ± 0.0066
DIFSRFSIILKC [YPR136C C-terminal 12 aa] | 0.413 ± 0.017 | 0.281 ± 0.012
AHRENIAFPPQF [YHR033W C-terminal 12 aa] | 0.739 ± 0.0092 | 0.744 ± 0.067
FRHNRSNKKSGC [GEX2 C-terminal 12 aa] | 0.707 ± 0.032 | 0.668 ± 0.069
GKKLVQEAFRIV [YPL039W C-terminal 12 aa] | 0.715 ± 0.019 | 0.675 ± 0.035
LPSERSRLSYTN [CBP3 C-terminal 12 aa] | 0.703 ± 0.026 | 0.696 ± 0.071
YTDLASIASGRD [SHS1 C-terminal 12 aa] | 0.691 ± 0.016 | 0.714 ± 0.092
VTVYGGRSRMSA [YJL152W C-terminal 12 aa] | 0.6989 ± 0.0061 | 0.702 ± 0.02
HQDSAKYTHYYL [YER158C C-terminal 12 aa] | 0.696 ± 0.016 | 0.652 ± 0.0081
EDVKEEESKVGA [IOC4 C-terminal 12 aa] | 0.691 ± 0.033 | 0.664 ± 0.0082
SKLNAVHTANEK [SEC8 C-terminal 12 aa] | 0.712 ± 0.016 | 0.686 ± 0.022
VDIALYLTRSQT [YGR039W C-terminal 12 aa] | 0.699 ± 0.017 | 0.694 ± 0.011
VVKRKKVKTKRI [JJJ1 C-terminal 12 aa] | 0.689 ± 0.041 | 0.748 ± 0.14
GEDPYADLFRDF [TPK1 C-terminal 12 aa] | 0.731 ± 0.0078 | 0.6846 ± 0.0053
DQTRDFGTSMEL [FOB1 C-terminal 12 aa] | 0.706 ± 0.0098 | 0.712 ± 0.0086
TTVDRTGNGAFW [YLR154C-H C-terminal 12 aa] | 0.703 ± 0.017 | 0.723 ± 0.036
RRRASKNAFRGM [ENP2 C-terminal 12 aa] | 0.696 ± 0.02 | 0.692 ± 0.014
FASPTLSFFFPI [YGL149W C-terminal 12 aa] | 0.724 ± 0.013 | 0.7061 ± 0.002
FWFLFPLRLPGG [IRC16 C-terminal 12 aa] | 0.5766 ± 0.0015 | 0.5685 ± 0.0012
TEPLYILRWLRS [YDR290W C-terminal 12 aa] | 0.678 ± 0.008 | 0.313 ± 0.0053

Sequence | protein stability index [1] | protein stability index (genetic background: wild type)
QVSLLLGFSSRS [MRX20 C-terminal 12 aa] | 0.698 ± 0.0012 | 0.7 ± 0.011
EKMLAAPHQNKV [SPR28 C-terminal 12 aa] | 0.696 ± 0.015 | 0.6924 ± 0.001
STKATPTDLSKL [MLS1 C-terminal 12 aa] | 0.7565 ± 0.0027 | 0.8075 ± 0.0051
NEDDYLAVKYVL [FES1 C-terminal 12 aa] | 0.687 ± 0.018 | 0.696 ± 0.044
SLLGIQKSVRNL [MDM20 C-terminal 12 aa] | 0.691 ± 0.056 | 0.6654 ± 0.006
KGCYKLCKNLLE [KEI1 C-terminal 12 aa] | 0.686 ± 0.013 | 0.696 ± 0.043
LRKKQVKKKVKS [SLX8 C-terminal 12 aa] | 0.6885 ± 0.0062 | 0.716 ± 0.061
CLILSCSWWILN [YJR020W C-terminal 12 aa] | 0.292 ± 0.0085 | 0.1518 ± 0.00025
AWDIKQTLDSLA [CHO2 C-terminal 12 aa] | 0.709 ± 0.023 | 0.697 ± 0.038
VWKRARVDLIAS [POL12 C-terminal 12 aa] | 0.591 ± 0.019 | 0.51 ± 0.029
AAISFKEAPRSD [ANB1 C-terminal 12 aa] | 0.723 ± 0.037 | 0.694 ± 0.036
AYTEVKAVRIKL [ALD6 C-terminal 12 aa] | 0.6745 ± 0.0043 | 0.69 ± 0.02
KLYILKHLGSKQ [RRG9 C-terminal 12 aa] | 0.681 ± 0.037 | 0.685 ± 0.019
EPLKESIFNQLK [MRPL23 C-terminal 12 aa] | 0.694 ± 0.013 | 0.678 ± 0.059
KRYTVKKALAKA [RPL14A C-terminal 12 aa] | 0.6258 ± 0.0061 | 0.627 ± 0.013
VLLIRSDKKKKV [YIL102C-A C-terminal 12 aa] | 0.71 ± 0.024 | 0.696 ± 0.035
FHLRHHKGAEEH [ATP17 C-terminal 12 aa] | 0.7076 ± 0.0039 | 0.678 ± 0.019
PDDQIHSILLSL [MET13 C-terminal 12 aa] | 0.708 ± 0.019 | 0.714 ± 0.018
KEANPIKITPQP [MDL2 C-terminal 12 aa] | 0.682 ± 0.009 | 0.708 ± 0.0083
TPLGPKPDIRPP [GTO3 C-terminal 12 aa] | 0.712 ± 0.013 | 0.693 ± 0.017
ARTALKRLIDDQ [MSA1 C-terminal 12 aa] | 0.692 ± 0.023 | 0.698 ± 0.025

Sequence | protein stability index [1] | protein stability index (genetic background: wild type)
IKSVHVDLSLDK [ALD3 C-terminal 12 aa] | 0.717 ± 0.022 | 0.704 ± 0.043
QIADDRPWCRME [YHC3 C-terminal 12 aa] | 0.705 ± 0.01 | 0.6831 ± 0.0064
AQFKEYLYQNDF [HAM1 C-terminal 12 aa] | 0.704 ± 0.01 | 0.697 ± 0.022
RNVYSTKTRCIE [TDA10 C-terminal 12 aa] | 0.681 ± 0.017 | 0.699 ± 0.023
TANKAGNKFQLS [LDO16 C-terminal 12 aa] | 0.707 ± 0.0029 | 0.675 ± 0.019
KGFQFGLGLAFL [SAM50 C-terminal 12 aa] | 0.736 ± 0.034 | 0.69 ± 0.019
HLYSTLLFHSVN [RRG8 C-terminal 12 aa] | 0.728 ± 0.013 | 0.543 ± 0.033
FKQKYDADVLDK [RPL11A C-terminal 12 aa] | 0.6902 ± 0.0043 | 0.735 ± 0.047
AKDFLEKRGISK [PAM18 C-terminal 12 aa] | 0.711 ± 0.0047 | 0.705 ± 0.023
ECPRFSNKHGRN [YDR169C-A C-terminal 12 aa] | 0.701 ± 0.0084 | 0.681 ± 0.014
LKKKLYTLEQKK [KEL2 C-terminal 12 aa] | 0.694 ± 0.02 | 0.6241 ± 0.0031
VVNNRIFSGISK [RSM26 C-terminal 12 aa] | 0.713 ± 0.027 | 0.698 ± 0.018
DDEDEEDDDFKE [CHZ1 C-terminal 12 aa] | 0.725 ± 0.021 | 0.671 ± 0.017
CSGMKPISELQQ [RSM28 C-terminal 12 aa] | 0.695 ± 0.015 | 0.682 ± 0.017
GRGAISYSDITI [PEP5 C-terminal 12 aa] | 0.707 ± 0.018 | 0.69 ± 0.0077
GETIRVNYGSTQ [YJR154W C-terminal 12 aa] | 0.685 ± 0.0089 | 0.689 ± 0.039
KRDIVFAASLYL [SKI2 C-terminal 12 aa] | 0.6855 ± 0.0061 | 0.739 ± 0.12
NSARKRVFGTVI [DIP2 C-terminal 12 aa] | 0.6997 ± 0.0036 | 0.655 ± 0.0069
NVLTVVNPDEAD [SLG1 C-terminal 12 aa] | 0.692 ± 0.027 | 0.6841 ± 0.0015
